Target: HLA-A2 (human)
Assay: T2 cells without peptide stained with MA2.1 mAb, flow cytometry (baseline of the stabilization assay)

- mean channel fluorescence: 90
Substance: MA2.1 mAb (antibody)
